Measurements published in patent US20260242478A1 (published 2026).
Where no end group is shown, it is not given here.

Columns and labels:
[1] = target: T1, anti-CD28 scFv (VH - linker 1 - VL) (biotinylated (site not stated)); assay: phage ELISA; biotinylated anti-CD28 scFv on neutravidin plate, clonal phage supernatant, anti-M13-HRP detection;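 also: before phage addition, wells were pretreated with soluble CD28 protein in blocking buffer, or with blocking buffer only as the comparison, then phage were added without washing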
T1 sequence (scFv, as listed by the source): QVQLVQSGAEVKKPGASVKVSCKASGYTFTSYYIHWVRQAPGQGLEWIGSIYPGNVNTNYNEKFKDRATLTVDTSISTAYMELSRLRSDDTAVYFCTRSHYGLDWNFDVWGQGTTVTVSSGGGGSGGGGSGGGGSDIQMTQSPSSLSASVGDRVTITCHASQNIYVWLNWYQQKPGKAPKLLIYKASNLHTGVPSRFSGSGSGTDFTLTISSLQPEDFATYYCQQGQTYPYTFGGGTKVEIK

[2] = target: T1, anti-CD28 scFv (VH - linker 1 - VL); assay: same phage ELISA, wells pre-incubated with soluble CD28 (competitor)
Description: Clonal phage were harvested as crude supernatants and screened via standard enzyme linked immunosorbent assays (ELISAs). […] Prior to the addition of clonal phage, wells were incubated with blocking buffer and CD28 soluble protein or blocking buffer alone. Without washing or aspirating, clonal phage supernatants were then added to the wells and incubated for a short time. Wells were then washed followed by detection of bound phage using a horse radish peroxidase conjugated anti-M13 antibody.

[3] = target: T2, Anti-CD28 Fab (SEQ ID NOs: 696, 697); assay: phage binding ELISA; biotinylated anti-CD28 Fab on neutravidin plate, clonal phage supernatant, anti-M13 HRP detection
T2 construct: Biotinylated and captured on neutravidin coated plates in the phage ELISA
T2 sequence (VH, as listed by the source, chain 1 of 2): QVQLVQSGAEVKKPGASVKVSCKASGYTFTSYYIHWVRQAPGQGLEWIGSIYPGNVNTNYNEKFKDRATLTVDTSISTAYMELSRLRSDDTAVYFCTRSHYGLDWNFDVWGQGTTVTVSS
T2 sequence (VL, as listed by the source, chain 2 of 2): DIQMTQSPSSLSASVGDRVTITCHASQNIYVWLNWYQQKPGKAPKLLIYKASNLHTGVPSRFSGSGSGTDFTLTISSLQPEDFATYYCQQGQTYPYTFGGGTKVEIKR
Description: (§1) After panning, phage infected bacteria were plated out and colonies picked into 96 well blocks. Clonal phage was then amplified and separated from bacterial cells via centrifugation.
(§2) Clonal phage were harvested as crude supematants and screened via standard ELISAs. […] Prior to the addition of clonal phage, wells were incubated with blocking buffer and CD28 antigen or blocking buffer alone. Without washing or aspirating, clonal phage supematants were then added to the wells and incubated for a short time. Wells were then washed followed by detection of bound phage using a horse radish conjugated anti-M13 antibody. Clonal phage of interest were then sent for sequence analysis.

[4] = target: T2, Anti-CD28 Fab (SEQ ID NOs: 696, 697); assay: phage binding ELISA; Fab-coated wells pre-incubated with CD28 antigen as competitor, anti-M13 HRP detection;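 also: crude clonal phage supernatants from panned colonies added to wells after blocking buffer plus CD28 treatment, bound phage measured after a brief incubation and washing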
Description: as §1, §2

[5] = target: T3, Anti-CD28 Fab (SEQ ID NOs: 696, 697); assay: phage binding ELISA; biotinylated Fab on neutravidin plate, clonal phage supernatant, anti-M13 HRP;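 also: clones picked after panning, added to wells pre-incubated with CD28 antigen or with blocking buffer only, no wash before phage addition, bound phage read after washing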
T3 construct: Biotinylated and captured on neutravidin coated plates in the phage ELISA
T3 sequence (VH, as listed by the source, chain 1 of 2): as the sequence (VH, as listed by the source, chain 1 of 2) above
T3 sequence (VL, as listed by the source, chain 2 of 2): as the sequence (VL, as listed by the source, chain 2 of 2) above
Description: as §1, §2

[6] = target: T3, Anti-CD28 Fab (SEQ ID NOs: 696, 697); assay: phage binding ELISA; Fab wells pre-incubated with CD28 antigen as competitor, anti-M13 HRP
Description: as §1, §2

Binder | CD28 scFv signal [1] | CD28 scFv signal in presence of CD28 [2] | Anti-CD28 Fab (SEQ ID NOs: 696, 697) signal [5] | Anti-CD28 Fab signal in the presence of CD28 [6] | further results
MDWCPRFMWDECFN (peptide, not shown: large carriers, Clonal phage supernatant) [Phage-33] | 2.68 | 0.256 | – | – | –
YCEGHAPEYIGKCL (peptide, not shown: large carriers, Clonal phage of the Peptide-87 optimisation library, tested as crude supernatant) [Phage-497] | – | – | – | – | Anti-CD28 Fab signal (phage binding ELISA) [3]: 2.1; Anti-CD28 Fab signal in the presence of CD28 (phage binding ELISA) [4]: 0.07
YCDGHSPIYMWKCL (peptide, not shown: large carriers, Clonal phage of the Peptide-87 optimisation library, tested as crude supernatant) [Phage-498] | – | – | – | – | Anti-CD28 Fab signal (phage binding ELISA) [3]: 2.47; Anti-CD28 Fab signal in the presence of CD28 (phage binding ELISA) [4]: 0.09
YCEGHAPEYMAKCL (peptide, not shown: large carriers, Clonal phage of the Peptide-87 optimisation library, tested as crude supernatant) [Phage-499] | – | – | – | – | Anti-CD28 Fab signal (phage binding ELISA) [3]: 2.47; Anti-CD28 Fab signal in the presence of CD28 (phage binding ELISA) [4]: 0.08
MDWCPRHMWNYCFA (peptide, not shown: large carriers, cysteine pairing not given here; also: displayed on phage as fusion to pIII, linker and pIII sequence not given here, Clonal phage supernatant) [Phage-34] | 2.71 | 0.242 | – | – | –
MDWCPRDLWHECFA (peptide, not shown: large carriers, cysteine pairing not given here; also: phage-displayed pIII fusion, pIII and linker not given here, Clonal phage supernatant) [Phage-26] | 2.71 | 0.277 | – | – | –
YCEGHSPEYMAKCL (cysteine pairing not given here; also: displayed on phage as fusion to pIII, linker, pIII sequence and order not given here, Clonal phage supernatant; not shown: pIII filament protein of the bacteriophage to which the peptide is fused) [Phage-526] | – | – | 2.35 | 0.07 | –
YCDGHLPEYMSKCL (cysteine pairing not given here; also: displayed on phage as fusion to pIII, linker, pIII sequence and order not given here, Clonal phage supernatant; not shown: pIII filament protein of the bacteriophage to which the peptide is fused) [Phage-527] | – | – | 2.35 | 0.14 | –
YCDGHLPEYMMKCL (cysteine pairing not given here; also: displayed on phage as fusion to pIII, linker, pIII sequence and order not given here, Clonal phage supernatant; not shown: pIII filament protein of the bacteriophage to which the peptide is fused) [Phage-530] | – | – | 2.34 | 0.11 | –
YCDGHLPIYMSKCL (cysteine pairing not given here; also: displayed on phage as fusion to pIII, linker, pIII sequence and order not given here, Clonal phage supernatant; not shown: pIII filament protein of the bacteriophage to which the peptide is fused) [Phage-536] | – | – | 2.32 | 0.08 | –
YCDGHLPQYMAKCL (cysteine pairing not given here; also: displayed on phage as fusion to pIII, linker, pIII sequence and order not given here, Clonal phage supernatant; not shown: pIII filament protein of the bacteriophage to which the peptide is fused) [Phage-528] | – | – | 2.35 | 0.15 | –
YCEGHLPQYMAKCL (cysteine pairing not given here; also: displayed on phage as fusion to pIII, linker, pIII sequence and order not given here, Clonal phage supernatant; not shown: pIII filament protein of the bacteriophage to which the peptide is fused) [Phage-533] | – | – | 2.34 | 0.14 | –
YCQGHLPMYMAKCL (cysteine pairing not given here; also: displayed on phage as fusion to pIII, linker, pIII sequence and order not given here, Clonal phage supernatant; not shown: pIII filament protein of the bacteriophage to which the peptide is fused) [Phage-529] | – | – | 2.34 | 0.08 | –
YCQGHLPMYMEKCL (cysteine pairing not given here; also: displayed on phage as fusion to pIII, linker, pIII sequence and order not given here, Clonal phage supernatant; not shown: pIII filament protein of the bacteriophage to which the peptide is fused) [Phage-532] | – | – | 2.34 | 0.09 | –
MDWCPMHLWHQCFN (peptide, not shown: large carriers, Clonal phage supernatant) [Phage-39] | 2.56 | 0.299 | – | – | –
MDWCPRERWVDCFF (peptide, not shown: large carriers, cysteine pairing not given here; also: displayed on phage as fusion to pIII, linker not given here, Clonal phage supernatant) [Phage-9] | 2.04 | 0.489 | – | – | –
MDWCPIDLWNECFF (peptide, not shown: large carriers, cysteine pairing not given here; also: phage-displayed pIII fusion, pIII and linker not given here, Clonal phage supernatant) [Phage-19] | 2.52 | 0.187 | – | – | –
MDWCPIHLWHVCFN (peptide, not shown: large carriers, cysteine pairing not given here; also: displayed as fusion to phage pIII, Clonal phage supernatant) [Phage-20] | 2.53 | 0.167 | – | – | –
MDWCPIYLWSECFN (peptide, not shown: large carriers, Clonal phage supernatant) [Phage-21] | 2.63 | 0.513 | – | – | –
MDWCPLYLWNECFN (peptide, not shown: large carriers, Clonal phage supernatant) [Phage-24] | 2.61 | 0.247 | – | – | –
MDWCPRDLWDLCFA (peptide, not shown: large carriers, cysteine pairing not given here; also: phage-displayed pIII fusion, pIII and linker not given here, Clonal phage supernatant) [Phage-25] | 2.7 | 0.219 | – | – | –
MDWCPRDLWHLCFS (peptide, not shown: large carriers, cysteine pairing not given here; also: displayed on phage as fusion to pIII, linker and pIII sequence not given here, Clonal phage supernatant) [Phage-27] | 2.59 | 0.29 | – | – | –
MDWCPRDLWSECFF (peptide, not shown: large carriers, Clonal phage supernatant) [Phage-28] | 2.57 | 0.218 | – | – | –
MDWCPRDMWDECFA (peptide, not shown: large carriers, cysteine pairing not given here; also: peptide displayed as fusion to phage pIII, Clonal phage supernatant) [Phage-30] | 2.59 | 0.25 | – | – | –
MDWCPRDMWSECFA (peptide, not shown: large carriers, Clonal phage supernatant) [Phage-31] | 2.7 | 0.293 | – | – | –
